Assay results from the supplement of paper PMC7877785.
± gives the uncertainty stated by the source.

Experiment: self-splicing fitness, log relative to wild type (ln ratio); higher = more splicing; Tetrahymena group I intron in knt gene, E. coli kanamycin selection, DiMSum; sequences stand for … in CUCUCU…GGAGGGAAAAGUUAUCAGGCAUGCACCUGGUAGCUAGUCUUUAAACCAAUAGAUUGCAUCGGUUUAAAAGGCAAGACCGUCAAAUUGCGGGAAAGGGGUCAACAGCCGUUCAGUACCAAGUCUCAGGGGAAACUUUGAGAUGGCCUUGCAAAGGGUAUGGUAAUAAGCUGACGGACAUGGUCCUAACCACGCAGCCAAGUCCUAAGUCAACAGAUCUUCUGUUGAUAUGGAUGCAGUUCACAGACUAAAUGUCGGUCGGGGAAGAUGUAUUCUUCUCAUAAGAUAUAGUCGGACCUCUCCUUAAUGGGAGCUAGCGGAUGAAGUGAUGCAACACUGGAGCCGCUGGGAACUAAUUUGUAUGCGAAAGUAUAUUGAUUAGUUUUGGAGUACUCGUGGUCG
Procedure, shortened: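 Pooled colonies went to amplicon sequencing on an Illumina HiSeq 2500 after six replicate transformations. The plates were LB agar with 100 μg/mL carbenicillin, 50 μM IPTG and 0.2% rhamnose, with or without 25 μg/mL kanamycin, incubated overnight at 37°C or 30°C. The E. coli BL21(DE3) library had all eight P1ex-region intron nucleotides randomised, the intron placed in the knt kanamycin-resistance gene on pET-22b(+). DiMSum fitness is the error-weighted combination of replicate fold changes, kanamycin against none, normalised to wild type.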

Row | Sequence | self-splicing fitness (ln) (30 °C) | self-splicing fitness (ln) (37 °C)
1 | GGUUAGCAAUAUUACGAGUU | -1.87 ± 0.15 | -0.221 ± 0.12
2 | GGUUAGCAAUAUUACGAUCG | -0.314 ± 0.14 | -0.207 ± 0.27
3 | GGUUAGCAAUAUUACGAUGU | -0.65 ± 0.14 | -0.087 ± 0.15
4 | GGUUAGCAAUAUUACGCACA | -0.431 ± 0.1 | -0.339 ± 0.14
5 | GGUUAGCAAUAUUACGCAGA | -1.17 ± 0.24 | -2.02 ± 0.26
6 | GGUUAGCAAUAUUACGCGAC | -2.02 ± 0.34 | -1.33 ± 0.27
7 | GGUUAGCAAUAUUACGCUCA | -1.34 ± 0.2 | -0.632 ± 0.19
8 | GGUUAGCAAUAUUACGCUUU | -2.01 ± 0.13 | 0.0831 ± 0.14
9 | GGUUAGCAAUAUUACGGCCC | -1.23 ± 0.43 | –
10 | GGUUAGCAAUAUUACGGGUA | -1.11 ± 0.22 | -1.39 ± 0.19
11 | GGUUAGCAAUAUUACGGGUC | -2.03 ± 0.24 | -0.805 ± 0.18
12 | GGUUAGCAAUAUUACGUAGC | -2.18 ± 0.16 | -1.97 ± 0.17
13 | GGUUAGCAAUAUUACGUAUU | -1.14 ± 0.11 | -0.191 ± 0.1
14 | GGUUAGCAAUAUUACGUCAC | – | -1.82 ± 0.23
15 | GGUUAGCAAUAUUACGUCCC | – | -2.36 ± 0.34
16 | GGUUAGCAAUAUUACGUGCC | -2 ± 0.46 | –
17 | GGUUAGCAAUAUUACGUGGU | -2.69 ± 0.18 | -0.78 ± 0.17
18 | GGUUAGCAAUAUUACGUUAA | -2.32 ± 0.19 | -0.699 ± 0.16
19 | GGUUAGCAAUAUUACGUUAU | -1.61 ± 0.1 | -0.954 ± 0.1
20 | GGUUAGCAAUAUUACGUUCG | -0.206 ± 0.089 | 0.151 ± 0.11
21 | GGUUAGCAAUAUUACGUUCU | -0.833 ± 0.042 | -0.236 ± 0.052
22 | GUAAAGCAAUAUUACGAAAU | -0.837 ± 0.078 | -0.128 ± 0.1
23 | GUAAAGCAAUAUUACGAACC | -2.39 ± 0.29 | -2.8 ± 0.36
24 | GUAAAGCAAUAUUACGAAUG | -2.8 ± 0.14 | -1.23 ± 0.2
25 | GUAAAGCAAUAUUACGACAG | -2.12 ± 0.17 | -2.22 ± 0.25
26 | GUAAAGCAAUAUUACGACGC | 0.577 ± 0.16 | 0.0941 ± 0.19
27 | GUAAAGCAAUAUUACGAGGG | -3.57 ± 0.24 | –

Row | Sequence | self-splicing fitness (ln) (30 °C) | self-splicing fitness (ln) (37 °C)
28 | GUAAAGCAAUAUUACGAUAU | -0.349 ± 0.087 | -0.0732 ± 0.11
29 | GUAAAGCAAUAUUACGAUCA | -0.396 ± 0.11 | -0.197 ± 0.11
30 | GUAAAGCAAUAUUACGCCAG | -1.89 ± 0.083 | -1.21 ± 0.14
31 | GUAAAGCAAUAUUACGCCGA | -0.859 ± 0.11 | -0.839 ± 0.14
32 | GUAAAGCAAUAUUACGCCUG | -0.223 ± 0.15 | 0.555 ± 0.17
33 | GUAAAGCAAUAUUACGCGAC | -0.509 ± 0.26 | 1.71 ± 0.45
34 | GUAAAGCAAUAUUACGCUGG | -0.164 ± 0.086 | -0.981 ± 0.14
35 | GUAAAGCAAUAUUACGGAUG | -2.97 ± 0.24 | -0.613 ± 0.19
36 | GUAAAGCAAUAUUACGGCGU | -0.369 ± 0.069 | 0.409 ± 0.11
37 | GUAAAGCAAUAUUACGGGAG | -3.68 ± 0.25 | -1.67 ± 0.14
38 | GUAAAGCAAUAUUACGGGUU | -1.72 ± 0.13 | -1.86 ± 0.18
39 | GUAAAGCAAUAUUACGGUCA | -0.163 ± 0.072 | 0.362 ± 0.097
40 | GUAAAGCAAUAUUACGUGAC | -2.09 ± 0.076 | -0.885 ± 0.078
41 | GUAAAGCAAUAUUACGUGGU | -3.26 ± 0.12 | -1.11 ± 0.095
42 | GUAAAGCAAUAUUACGUGUU | -2.69 ± 0.098 | -0.867 ± 0.11
43 | GUACAGCAAUAUUACGAACG | -1.92 ± 0.17 | -1.22 ± 0.19
44 | GUACAGCAAUAUUACGACAA | -1.77 ± 0.14 | -0.826 ± 0.12
45 | GUACAGCAAUAUUACGACAU | -0.299 ± 0.012 | 0.127 ± 0.032
46 | GUACAGCAAUAUUACGACCU | -0.715 ± 0.21 | -0.152 ± 0.24
47 | GUACAGCAAUAUUACGACUC | -0.243 ± 0.06 | 0.473 ± 0.068
48 | GUACAGCAAUAUUACGAGUU | -1.7 ± 0.094 | -1.36 ± 0.12
49 | GUACAGCAAUAUUACGAUAC | -2.35 ± 0.21 | -2.52 ± 0.22
50 | GUACAGCAAUAUUACGAUCA | -1.83 ± 0.13 | -0.392 ± 0.2
51 | GUACAGCAAUAUUACGCAUC | -3.74 ± 0.23 | -1.36 ± 0.19
52 | GUACAGCAAUAUUACGCCAA | – | -1.7 ± 0.29
53 | GUACAGCAAUAUUACGCCCG | -1.85 ± 0.14 | -1.38 ± 0.2
54 | GUACAGCAAUAUUACGCCGC | -3.01 ± 0.24 | -2.46 ± 0.45

Row | Sequence | self-splicing fitness (ln) (30 °C) | self-splicing fitness (ln) (37 °C)
55 | GUACAGCAAUAUUACGCUGA | -2.47 ± 0.12 | -1.33 ± 0.1
56 | GUACAGCAAUAUUACGGAAU | -2.76 ± 0.11 | -1.46 ± 0.12
57 | GUACAGCAAUAUUACGGCAU | -0.301 ± 0.081 | -0.278 ± 0.11
58 | GUACAGCAAUAUUACGGCGU | -0.577 ± 0.069 | 0.482 ± 0.085
59 | GUACAGCAAUAUUACGGGAA | -3.59 ± 0.25 | -2.24 ± 0.22
60 | GUACAGCAAUAUUACGGGAC | -1.7 ± 0.12 | -1.22 ± 0.14
61 | GUACAGCAAUAUUACGGGGG | -3.36 ± 0.12 | -3.03 ± 0.15
62 | GUACAGCAAUAUUACGGUCA | -0.796 ± 0.068 | -0.618 ± 0.082
63 | GUACAGCAAUAUUACGGUCG | -1.36 ± 0.058 | -0.547 ± 0.084
64 | GUACAGCAAUAUUACGUCAC | – | -2.14 ± 0.31
65 | GUACAGCAAUAUUACGUCAG | -4.26 ± 0.29 | -2.99 ± 0.26
66 | GUACAGCAAUAUUACGUCGG | -3.45 ± 0.27 | -2.4 ± 0.25
67 | GUACAGCAAUAUUACGUCUA | -1.11 ± 0.091 | -0.268 ± 0.081
68 | GUACAGCAAUAUUACGUGAG | -1.42 ± 0.074 | -0.954 ± 0.093
69 | GUACAGCAAUAUUACGUGGA | -4.34 ± 0.29 | -2.52 ± 0.14
70 | GUACAGCAAUAUUACGUGUG | -2.12 ± 0.087 | -1.45 ± 0.1
71 | GUACAGCAAUAUUACGUUGA | -2.77 ± 0.12 | -1.59 ± 0.095
72 | GUAGAGCAAUAUUACGAAAA | – | -0.266 ± 0.44
73 | GUAGAGCAAUAUUACGAAUU | -2.35 ± 0.21 | -2.01 ± 0.35
74 | GUAGAGCAAUAUUACGACAG | -3.49 ± 0.33 | -1.86 ± 0.3
75 | GUAGAGCAAUAUUACGACUC | 0.512 ± 0.23 | 0.484 ± 0.38
76 | GUAGAGCAAUAUUACGAGCU | -2.67 ± 0.22 | -1.66 ± 0.23
77 | GUAGAGCAAUAUUACGCCAU | -1.22 ± 0.39 | –
78 | GUAGAGCAAUAUUACGCGCU | -2.69 ± 0.32 | -2.85 ± 0.32
79 | GUAGAGCAAUAUUACGCUAG | -0.754 ± 0.13 | 0.329 ± 0.21
